Results on one molecule are retold here after publication PMC5964327.

This assay addresses T1, CHIP-myc (wild type), Q9UNE7.
T1 chain: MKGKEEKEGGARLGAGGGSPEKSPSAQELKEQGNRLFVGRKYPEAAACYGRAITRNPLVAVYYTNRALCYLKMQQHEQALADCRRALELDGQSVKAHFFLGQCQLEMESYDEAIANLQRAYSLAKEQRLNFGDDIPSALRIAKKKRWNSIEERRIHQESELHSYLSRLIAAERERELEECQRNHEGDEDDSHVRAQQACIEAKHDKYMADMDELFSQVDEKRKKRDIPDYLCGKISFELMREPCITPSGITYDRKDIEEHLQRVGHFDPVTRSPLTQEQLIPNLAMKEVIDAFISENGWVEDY
The assay can be described thus: co-immunoprecipitation (anti-flag IP, anti-myc immunoblot), quantified. To be noted: chain shown with the change, serum deprived for 24 h, co-transfected with HSP70-V5 and CHIP-myc, read off a plot.

B1: NEK10-flag (wild type), Q6ZWH5-1 T812A (protein)
chain: MPDQDKKVKTTEKSTDKQQEITIRDYSDLKRLRCLLNVQSSKQQLPAINFDSAQNSMTKSEPAIRAGGHRARGQWHESTEAVELENFSINYKNERNFSKHPQRKLFQEIFTALVKNRLISREWVNRAPSIHFLRVLICLRLLMRDPCYQEILHSLGGIENLAQYMEIVANEYLGYGEEQHTVDKLVNMTYIFQKLAAVKDQREWVTTSGAHKTLVNLLGARDTNVLLGSLLALASLAESQECREKISELNIVENLLMILHEYDLLSKRLTAELLRLLCAEPQVKEQVKLYEGIPVLLSLLHSDHLKLLWSIVWILVQVCEDPETSVEIRIWGGIKQLLHILQGDRNFVSDHSSIGSLSSANAAGRIQQLHLSEDLSPREIQENTFSLQAACCAALTELVLNDTNAHQVVQENGVYTIAKLILPNKQKNAAKSNLLQCYAFRALRFLFSMERNRPLFKRLFPTDLFEIFIDIGHYVRDISAYEELVSKLNLLVEDELKQIAENIESINQNKAPLKYIGNYAILDHLGSGAFGCVYKVRKHSGQNLLAMKEVNLHNPAFGKDKKDRDSSVRNIVSELTIIKEQLYHPNIVRYYKTFLENDRLYIVMELIEGAPLGEHFSSLKEKHHHFTEERLWKIFIQLCLALRYLHKEKRIVHRDLTPNNIMLGDKDKVTVTDFGLAKQKQENSKLTSVVGTILYSCPEVLKSEPYGEKADVWAVGCILYQMATLSPPFYSTNMLSLATKIVEAVYEPVPEGIYSEKVTDTISRCLTPDAEARPDIVEVSSMISDVMMKYLDNLSTSQLSLEKKLERERRRAQRYFMEANRNTVTCHHELAVLSHETFEKASLSSSSSGAASLKSELSESADLPPEGFQASYGKDEDRACDEILSDDNFNLENAEKDTYSEVDDELDISDNSSSSSSSPLKESTFNILKRSFSASGGERQSQTRDFTGGTGSRPRPALLPLDLLLKVPPHMLRAHIKEIEAELVTGWQSHSLPAVILRNLKDHGPQMGTFLWQASAGIAVSQRKVRQISDPIQQILIQLHKIIYITQLPPALHHNLKRRVIERFKKSLFSQQSNPCNLKSEIKKLSQGSPEPIEPNFFTADYHLLHRSSGGNSLSPNDPTGLPTSIELEEGITYEQMQTVIEEVLEESGYYNFTSNRYHSYPWGTKNHPTKR
In the case of B1, the response (arbitrary units) was 5 (+FSK (30'), parent: est. 100) and 28 (-FSK, parent: est. 10).
